Patent US6428985 (REGENTS OF THE UNIVERSITY OF MICHIGAN, dated 2002)
Positions count from the first letter of the chain named. In names and notes the source's numbering stands.

T1: mIL-10R1 on Ba/F3-mIL-10R1 cells (mouse pro-B cell line stably transfected with mIL-10R1) (murine, UniProt Q61727 17-575)
T1 construct: whole, on cells; also called IL-10 receptor
T1 sequence (looked up): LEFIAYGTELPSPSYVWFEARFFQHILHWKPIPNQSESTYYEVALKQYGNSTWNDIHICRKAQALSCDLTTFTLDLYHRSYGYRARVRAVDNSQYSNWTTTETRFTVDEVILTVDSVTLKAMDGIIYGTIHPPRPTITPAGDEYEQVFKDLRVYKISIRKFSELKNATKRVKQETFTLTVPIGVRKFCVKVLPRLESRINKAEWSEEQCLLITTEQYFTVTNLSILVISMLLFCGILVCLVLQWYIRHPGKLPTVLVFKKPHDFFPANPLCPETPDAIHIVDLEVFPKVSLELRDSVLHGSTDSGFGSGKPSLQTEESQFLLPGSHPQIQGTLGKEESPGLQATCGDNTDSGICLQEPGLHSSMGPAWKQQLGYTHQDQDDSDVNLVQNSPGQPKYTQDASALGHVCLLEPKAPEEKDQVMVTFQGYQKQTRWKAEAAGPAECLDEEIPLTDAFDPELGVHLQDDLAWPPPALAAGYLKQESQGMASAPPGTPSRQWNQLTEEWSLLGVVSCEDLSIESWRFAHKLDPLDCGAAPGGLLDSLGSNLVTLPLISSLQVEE

B1: purified hIL-10-myc-his (human IL-10 with carboxyl terminal myc-his tag) (ligand)
chain: SPGQGTQSENSCTHFPGNLPNMLRDLRDAFSRVKTFFQMKDQLDNLLLKESLLEDFKGYLGCQALSEMIQFYLEEVMPQAENQDPDIKAHVNSLGENLKTLRLRLRRCHRFLPCENKSKAVEQVKNAFNKLQEKGIYKAMSEFDIFINYIEAYMTMKIRN
notes: also called C-terminal myc-his tagged hIL-10; not shown: C-terminal myc-his tag from the pcDNA3.1-myc-his vector
B2: hIL-10 with amino terminal FLAG tag (pFLAGCMV-1 construct) (ligand, not shown: small tags and cut ends)
chain: B1 chain
notes: also called amino terminal FLAG construct of hIL-10
B3: purified hIL-10(I87A)-myc-his (human IL-10 with the single mutation, carboxyl terminal myc-his tag) (ligand)
chain: B1 chain with I87A
notes: also called hIL-10(187A); Ala87 version of IL-10; not shown: C-terminal myc-his tag from the pcDNA3.1-myc-his vector

Experiments:
[1] = target: T1, mIL-10R1 on Ba/F3-mIL-10R1 cells (mouse …); assay: flow cytometry on Ba/F3-mIL-10R1 cells, 100 ng purified IL-10-myc-his, 4° C. for 2 h
[2] = target: T1, mIL-10R1 on Ba/F3-mIL-10R1 cells (mouse …); assay: flow cytometry on Ba/F3-mIL-10R1 cells

Binder | binding result [1] | binding result [2]
B1 | binds | 
B2 |  | binds
B3 | binds | 
